# B1: 10E7E2: IgG1 mAb of hybridoma 10E7E2, specific for GPV-P3; VH SEQ ID NO: 72, VL SEQ ID NO: 74 (antibody, V domains shown)
# VH: QVQLKQSGPGLVQPSQSLSITCTVSGFSLTSYGVHWVRQSPGKGLEWLGVIWSGGTTDYNAAFISRLSISKDNSKSQVFFKMNSLQANDTAIYYCARGGHRGFAYWGQGTLVTVSA
# VL: DIVMTQSHKFMSTSVGDRVSITCKASQDVGTAVAWYQQKPGQSPKLLIYWASTRHTGVPDRFTGSGSGTDFTLTISNVQSEDLADYFCQQYSSYPLTFGAGTKLELK
# Test system: C. auris AR-0386
# Experiment: Passive transfer of mAbs or two mAbs in combination in A/J mouse model of invasive C. auris infection
# Assay type: in vivo, Candida auris
# Protocol: A. Complement protein C5-defecient A/J mice were treated with one of the five mAb or with DPBS as a vehicle control. The following day, mice were challenged with 1×10^8 C. auris cells/100 ul DPBS dose per mouse. […] B. Fungal burdens in the kidneys (top), heard (center), and brain (bottom).
# Identified protective mAbs were obtained by use of standard hybridoma technique and purified by use of protein A/G. A/J mice were given an i.p. dose of either single mAb or two mAbs in combination 24 hours before hematogensous challenge with a lethal dose (2×108) of C. auris AR-0386 live cells. Mice received either 9G2F5 alone or 6H1G8 alone or 9F2G5 and 3H7E3 in combination had 40% survival rate respectively, with prolonged survival as compared to control animals that received DPBS buffer control.
# Evaluation and validation of a panel of peptide-specific monoclonal antibodies (mAbs) as a passive immunization strategy protect against invasive C. auris infection in established A/J mouse model of human disease.
# The monoclonal antibodies used in this experiment were: • 6H1G8 (IgG2b), α-Hwp1 (Hyphal wall protein) • 3E2G2 (IgG2b), α-Fba (Fructose bisphosphate aldolase) • 10E7E2 (IgG1), α-GPV-P3 (General peptide vaccine 3 from Phosphoglycerate kinase) • 9F2G5 (IgG2a), α-Pgk1 (Phosphoglycerate kinase) • 3H7E3 (IgG1), α-Met6 (Methyltetrahydropteroyltriglutamate)
molecule,measurement,setting,value
B1,fungal burdens in targeted organs,"A/J mouse model, in words",lower fungal loads
same,protection against C. auris invasive infection,"A/J mouse model, in words",protect against C. auris invasive infection
same,survival,"FIG. 15A, A/J mice, 1×10^8 C. auris cells, experiment terminated 40 days post challenge",25%
same,Protection against C. auris,"Table 19, A/J strain mice",80-100%
same,Protection against C. auris (grade word),"Table 19, A/J strain mice",High

# Reference: patent publication US11707511B2, “Vaccine compositions and methods of using the same” (The Board of Supervisors of Louisiana State University and …, priority 2017, dated 2023)
